The record followed here is FireProtDB (doi:10.1110/ps.051460505).

The labels stand for the following.
B1: Gamma-crystallin D, P07320 (parent)
chain: MGKITLYEDRGFQGRHYECSSDHPNLQPYLSRCNSARVDSGCWMLYEQPNYSGLQYFLRRGDYADHQQWMGLSDSVRSCRLIPHSGSHRIRLYEREDYRGQMIEFTEDCSCLQDRFRFNEIHSLNVLEGSWVLYELSNYRGRQYLLMPGDYRRYQDWGATNARVGSLRRVIDFS

Several values for one entry are separate records, joined by “and”; a condition that tells them apart may be missing. Equal values may be shown once.

In the data set the parent is B1. The note with it: Homo sapiens; pH 7; 37 °C; GdnHCl; Fluorescence; Sodium phosphate 10 mM; transition: 3; structure 1HK0; whole UniProt chain shown.

In the case of M147A, the “ddG of mutation (higher = less stable)” value stood at 0 kcal/mol, the denaturant m value came out at 3.1 kcal/mol/M, the “denaturant midpoint (higher = more stable)” value (“denaturant midpoint” for short) came out at 2.8 M and the unfolding free energy stood at 8.9 kcal/mol.
On to Q55A Q143A, for which the denaturant m value was 3.5 kcal/mol/M and 3.1 kcal/mol/M; the “denaturant midpoint” value is 1.8 M and 3.1 M; the unfolding free energy was 6.3 kcal/mol and 9.6 kcal/mol.
Take Q55A: the denaturant m value was 3.8 kcal/mol/M and 3.4 kcal/mol/M; the “denaturant midpoint” value is 2 M and 2.9 M; the unfolding free energy is 7.5 kcal/mol and 9.6 kcal/mol.
For the variant R80A M147A, the denaturant m value is 3.2 kcal/mol/M; the “denaturant midpoint” value is 1.7 M and 2.8 M; the unfolding free energy was 5.6 kcal/mol and 8.9 kcal/mol.
In the case of Q143A, the denaturant m value is 3.8 kcal/mol/M and 3 kcal/mol/M; the “denaturant midpoint” value was 1.9 M and 3 M; the unfolding free energy is 7.2 kcal/mol and 9 kcal/mol.
For R80A, the “ddG of mutation (higher = less stable)” value is 1 kcal/mol and 1.3 kcal/mol; the denaturant m value was 3.4 kcal/mol/M and 2.7 kcal/mol/M; the “denaturant midpoint” value was 1.8 M and 2.9 M; the unfolding free energy is 6.7 kcal/mol and 7.6 kcal/mol.
